Data taken from publication PMC5007650, “Crystal structure of the two-subunit tRNA m^1A58 methyltransferase TRM6-TRM61 from Saccharomyces cerevisiae” (Scientific Reports, 2016).
Values belong to the binder of their own block, whether it stands above or below them.

Legend:
[1] = target: T1, TRM6 from Saccharomyces cerevisiae (S. cerevisiae, UniProt P41814 1-478); test: crystal structure; sitting-drop vapour diffusion at 293 K, 0.1 M HEPES pH 7.5, 2% MPD, 10% PEG 6000; apo TRM6-TRM61 and TRM6-TRM61 with SAM, each at 2.2 Å; heterotetramer from symmetry-related molecules; details: both partners purified
T1 construct: TRM6, non-catalytic subunit of the tRNA m1A58 methyltransferase, S. cerevisiae, full length; A selenomethionine derivative was used for phasing only; also called TRM6 subunit; source: bacteria, expression plasmid pETDuet-TRM6-TRM61, purified as the TRM6-TRM61 complex (Ni2+-NTA, Superdex 200)
T1 sequence (looked up): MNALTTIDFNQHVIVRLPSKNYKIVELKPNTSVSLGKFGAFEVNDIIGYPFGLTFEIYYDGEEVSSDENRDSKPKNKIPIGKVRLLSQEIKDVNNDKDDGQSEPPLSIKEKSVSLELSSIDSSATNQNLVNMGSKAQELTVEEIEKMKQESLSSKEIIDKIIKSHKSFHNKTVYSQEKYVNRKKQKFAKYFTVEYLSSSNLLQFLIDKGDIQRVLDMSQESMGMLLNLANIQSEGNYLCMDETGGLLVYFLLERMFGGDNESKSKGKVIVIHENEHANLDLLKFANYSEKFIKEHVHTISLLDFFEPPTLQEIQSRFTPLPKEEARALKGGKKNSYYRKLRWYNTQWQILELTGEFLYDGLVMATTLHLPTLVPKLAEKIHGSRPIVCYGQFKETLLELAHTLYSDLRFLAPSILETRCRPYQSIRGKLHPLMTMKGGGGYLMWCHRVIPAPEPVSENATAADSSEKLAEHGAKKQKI

[2] = target: the molecule itself; test: as above

binding result [1]: binds
B1: TRM61 from Saccharomyces cerevisiae (enzyme, S. cerevisiae, UniProt P46959 1-383, looked up)
chain: MSTNCFSGYKDLIKEGDLTLIWVSRDNIKPVRMHSEEVFNTRYGSFPHKDIIGKPYGSQIAIRTKGSNKFAFVHVLQPTPELWTLSLPHRTQIVYTPDSSYIMQRLNCSPHSRVIEAGTGSGSFSHAFARSVGHLFSFEFHHIRYEQALEEFKEHGLIDDNVTITHRDVCQGGFLIKKGDTTSYEFGNNETAASLNANVVFLDLPAPWDAIPHLDSVISVDEKVGLCCFSPCIEQVDKTLDVLEKYGWTDVEMVEIQGRQYESRRQMVRSLNDALERLRDIKRHKLQGVERRKRMFNNTIDSNDEKVGKRNEDGVPLTEKAKFNPFGKGSRIKEGDSNYKWKEVTKMEAEIKSHTSYLTFAFKVVNRSRDDEKVNEILRSTEK
notes: TRM61, catalytic subunit of the tRNA m1A58 methyltransferase, S. cerevisiae, full length; also called TRM61 subunit; catalytic subunit; source: bacteria, expression plasmid pETDuet-TRM6-TRM61, purified as the TRM6-TRM61 complex (Ni2+-NTA, Superdex 200)

B2: TRM6-TRM61 heterodimer from Saccharomyces cerevisiae (complex, S. cerevisiae)
chain 1: T1 sequence (looked up)
chain 2: B1 chain
notes: TRM6, S. cerevisiae, full length; as the chain of m1; TRM61, S. cerevisiae, full length; as the chain of m2; 1:1 heterodimer of TRM6 and TRM61 (the asymmetric unit of the crystal); two of them form the 2:2 heterotetramer; also called TRM6-TRM61 holoenzyme; TRM6-TRM61 complex; source: bacteria, expression plasmid pETDuet-TRM6-TRM61, purified (Ni2+-NTA, Superdex 200)
binding result [2]: binds
